Experimental data: US12031137B2, “Compositions comprising SASP modulators and senescence attenuators and uses thereof for modulating cellular senescence” (RSEM, LIMITED PARTNERSHIP, priority 2016, dated 2024)

Experiments:
SEMA3A-FC = assay: Sema 3A binding assay on plate-coated purified traps (saturation curves, KD); details: for Binding to SEMA3A: Table 2, Yes/No; for Kd / SEMA 3A-FC binding (dissociation constant): traps coated on plate, overnight incubation; for Kd: read-out: SEMA 3A-FC binding (dissociation constant)
Description: (§1) Sema 3A and AP-VEGF165 binding assays. Saturation curves for the determinations of KD of binding to SEMA 3A or VEGF165 were obtained as follow. Wells of high protein binding 96 well plates (Maxisorp, Nunc) were coated with purified traps diluted in PBS and blocked afterward with binding buffer (PBS containing 2% casein and 0.05% Tween 20). The SEMA3A-FC (R&D systems) or AP-VEGF165 ligands were diluted in binding buffer over an extensive range of concentrations and added to wells. Following an overnight incubation, wells were washed with PBS containing 0.05% tween. Bound SEMA3a-FC was detected using an HRP-linked anti-Human IgG (Biorad) and ECL substrate (Pierce). Alternatively, bound AP-VEGF165 was detected using CPD star substrate (Roche). The Chemiluminescent signal was acquired on a TECAN reader. Dissociation constant (KD) were determined by non-linear curve fitting using the Graph Pad prism software.
(§2) The relative affinity of traps of the present invention to SEMA3A and VEGF has been assessed. Traps were prepared as described in Example 8.

human VEGF165 = molecular target: T1, human VEGF165 (Homo sapiens, UniProt P15692); assay: AP-VEGF165 binding assay on plate-coated purified traps (saturation curves, KD); details: AP-VEGF165 ligand; for Kd: read-out: VEGF165 binding (dissociation constant)
T1 construct: made in house; host or cells: HEK293T
T1 sequence (P15692 27-191 isoform P15692-4): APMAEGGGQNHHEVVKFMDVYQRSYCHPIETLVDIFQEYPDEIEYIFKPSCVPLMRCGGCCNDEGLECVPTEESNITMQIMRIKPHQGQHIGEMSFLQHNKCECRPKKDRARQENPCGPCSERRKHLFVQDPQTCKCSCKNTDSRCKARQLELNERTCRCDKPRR
Description: Production of AP-VEGF165. the coding sequence of the human VEGF165 variant 1 (NM_001025366) was sub-cloned in the pAPtag5 vector (GenHunter), in-frame with an Alkaline Phosphatase domain (AP-VEGF165). HEK293T cells were transfected with the AP-VEGF165 construct using a polyethylenimine (PEI) transfection method. Following the overnight transfection step, cells were cultured for an additional 60 hr in serum free media (In vitrogen). The cell media were collected and concentrated on a PES device (Pierce). The concentrated AP-VEGF165 ligand was analysed on PAGE-SDS and quantified using SimplyBlue safe stain (Life technologies).
as §1, §2

[1] = tested on: mouse model of oxygen-induced retinopathy (OIR); assay: SA-β-gal staining of retinas in oxygen-induced retinopathy (OIR) after intravitreal injection; assay type: in vivo; details: single intravitreal injection at P12, vs vehicle
Text: O2-induced retinopathy. Mouse pups from different strains (C57Bl/6 WT, LyzM-Cre, LysM-Cre/IRE1^fl/fl, LysM-Cre/IRE1^+/+, IRE1^fl/fl and LysM-Cre/ROSA26EYFP^fl/fl), and their fostering mothers (CD1, Charles River) were exposed to 75% 02 from postnatal day 7 (P7) to day 12 and returned to room air. This model serves as a proxy to human ocular neovascular diseases such as ROP and diabetic retinopathy characterized by a late phase of destructive pathological angiogenesis (72, 73). Upon return to room air, hypoxia-driven neovascularization (NV) develops from P14 onwards (27). We enucleated eyes at different time points and dissected the retinas for mRNA, protein assays or flatmounting.
Senescence-associated β-galactosidase (SA-β-gal) assay. Senescence-associated β-galactosidase assays were carried out as described previously (57, 75)
Quantification of SA-β-gal in vivo. Senescence-associated β-galactosidase staining in flatmount retinas or sagittal eye sections were analyzed using Image J software as described in FIG. 14.
Intravitreal injections. P2, P10 or P12 C57BL/6 pups were anesthetized with 3.0% isoflurane and injected in the vitreous chamber with 0.5 μL of lentivirus (see “Lentivirus production”), recombinant SEMA3A (100 ng/μL), metformin (10 μg/μL) or Aflibercept (10 μg/uL) using a 10-μL Hamilton syringe fitted with a […] glass capillary tip. Approximately 254±11.0 ng/μL of lentivirus Sh_GFP and 323.3±15.3 ng/μL containing Sh_Sema3a, Lv.Cre (15.0 ng/mL), Lv.GFP (15.0 ng/mL) was injected. Virus titers were assessed with the p24 ELISA kit (ZeptoMetrix). The titers of the lentiviruses used were (in ng p24) LV.Sh_RNA IRE1α (8.52 ng/mL), and LV.Sh_RNA.GFP (8.47 ng/mL).

Trap G: NRP1 trap a1a2-b1b2-c, aa about 22-856; SEQ ID NOs 67/68
Binding to SEMA3A (SEMA3A-FC): Yes | preference for SEMA3A over VEGF binding (SEMA3A-FC; in words): much less important | Kd (SEMA3A-FC): 0.8 nM | Kd (human VEGF165): 6.75 nM | SA-β-gal staining at P17 OIR (cellular senescence) [1]: significant attenuation

B1: Trap M: NRP1 trap a1a2-b1, aa about 22-424; SEQ ID NOs 81/82 (protein)
chain: FRNDKCGDTIKIESPGYLTSPGYPHSYHPSEKCEWLIQAPDPYQRIMINFNPHFDLEDRDCKYDYVEVFDGENENGHFRGKFCGKIAPPPVVSSGPFLFIKFVSDYETHGAGFSIRYELFKRGPECSQNYTTPSGVIKSPGFPEKYPNSLECTYIVFAPKMSEIILEFESFDLEPDSNPPGGMFCRYDRLEIWDGFPDVGPHIGRYCGQKTPGRIRSSSGILSMVFYTDSAIAKEGFSANYSVLQSSVSEDFKCMEALGMESGEIHSDQITASSQYSTNWSAERSRLNYPENGWTPGEDSYREWIQVDLGLLRFVTAVGTQGAISKETKKKYYVKTYKIDVSSNGEDWITIKEGNKPVLFQGNTNPTDVVVAVFPKPLITRFVRIKPATWETGISMRFEVYGCRSGSKENLYFQG
Binding to SEMA3A (SEMA3A-FC): Yes | kd for SEMA3A relative to VEGF (SEMA3A-FC; see Table 6): about 20 × | Kd (human VEGF165): 20.1 nM | SA-β-gal staining at P17 OIR (cellular senescence) [1]: significant attenuation

B2: Trap AC: NRP1 trap a1a2-b1b2-c, aa about 22-856, D320K; SEQ ID NOs 75/76 (protein)
chain: FRNDKCGDTIKIESPGYLTSPGYPHSYHPSEKCEWLIQAPDPYQRIMINFNPHFDLEDRDCKYDYVEVFDGENENGHFRGKFCGKIAPPPVVSSGPFLFIKFVSDYETHGAGFSIRYELFKRGPECSQNYTTPSGVIKSPGFPEKYPNSLECTYIVFAPKMSEIILEFESFDLEPDSNPPGGMFCRYDRLEIWDGFPDVGPHIGRYCGQKTPGRIRSSSGILSMVFYTDSAIAKEGFSANYSVLQSSVSEDFKCMEALGMESGEIHSDQITASSQYSTNWSAERSRLNYPENGWTPGEKSYREWIQVDLGLLRFVTAVGTQGAISKETKKKYYVKTYKIDVSSNGEDWITIKEGNKPVLFQGNTNPTDVVVAVFPKPLITRFVRIKPATWETGISMRFEVYGCKITDYPCSGMLGMVSGLISDSQITSSNQGDRNWMPENIRLVTSRSGWALPPAPHSYINEWLQIDLGEEKIVRGIIIQGGKHRENKVFMRKFKIGYSNNGSDWKMIMDDSKRKAKSFEGNNNYDTPELRTFPALSTRFIRIYPERATHGGLGLRMELLGCEVEAPTAGPTTPNGNLVDECDDDQANCHSGTGDDFQLTGGTTVLATEKPTVIDSTIQSEFPTYGFNCEFGWGSHKTFCHWEHDNHVQLKWSVLTSKTGPIQDHTGDGNFIYSQADENQKGKVARLVSPVVYSQNSAHCMTFWYHMSGSHVGTLRVKLRYQKPEEYDQLVWMAIGHQGDHWKEGRVLLHKSLKLYQVIFEGEIGKGNLGGIAVDDISINNHISQEDCAKPADLDKKNPEIKIDETGSTPGYEGEGEGDKNISRKPGNVLKTLDPRSGSKENLYFQG
Binding to SEMA3A (SEMA3A-FC): Yes | Kd (SEMA3A-FC): 4 nM | VEGF165 binding (dissociation constant) (human VEGF165): No binding

B3: Trap N: NRP1 trap a1a2, aa about 22-265; SEQ ID NOs 85/86 (protein)
chain: FRNDKCGDTIKIESPGYLTSPGYPHSYHPSEKCEWLIQAPDPYQRIMINFNPHFDLEDRDCKYDYVEVFDGENENGHFRGKFCGKIAPPPVVSSGPFLFIKFVSDYETHGAGFSIRYELFKRGPECSQNYTTPSGVIKSPGFPEKYPNSLECTYIVFAPKMSEIILEFESFDLEPDSNPPGGMFCRYDRLEIWDGFPDVGPHIGRYCGQKTPGRIRSSSGILSMVFYTDSAIAKEGFSANYSVLRSGSKENLYFQG
Binding to SEMA3A (SEMA3A-FC): No | Kd (SEMA3A-FC): > 1000 nM | Kd (human VEGF165): > 250 nM

B4: Trap AD: NRP1 trap a1a2b1, aa about 22-424 and 561-583, D320K; SEQ ID NOs 51/52 (protein)
chain: MERGLPLLCAVLALVLAPAGAFRNDKCGDTIKIESPGYLTSPGYPHSYHPSEKCEWLIQAPDPYQRIMINFNPHFDLEDRDCKYDYVEVFDGENENGHFRGKFCGKIAPPPVVSSGPFLFIKFVSDYETHGAGFSIRYELFKRGPECSQNYTTPSGVIKSPGFPEKYPNSLECTYIVFAPKMSEIILEFESFDLEPDSNPPGGMFCRYDRLEIWDGFPDVGPHIGRYCGQKTPGRIRSSSGILSMVFYTDSAIAKEGFSANYSVLQSSVSEDFKCMEALGMESGEIHSDQITASSQYSTNWSAERSRLNYPENGWTPGEKSYREWIQVDLGLLRFVTAVGTQGAISKETKKKYYVKTYKIDVSSNGEDWITIKEGNKPVLFQGNTNPTDVVVAVFPKPLITRFVRIKPATWETGISMRFEVYGCRSGSKENLYFQG
Binding to SEMA3A (SEMA3A-FC): No | SEMA 3A-FC binding (dissociation constant) (SEMA3A-FC): No binding | VEGF165 binding (dissociation constant) (human VEGF165): No binding

B5: Trap AE: NRP1 trap a1a2b1b2, aa about 22-560, D320K; SEQ ID NOs 53/54 (protein)
chain: MERGLPLLCAVLALVLAPAGAFRNDKCGDTIKIESPGYLTSPGYPHSYHPSEKCEWLIQAPDPYQRIMINFNPHFDLEDRDCKYDYVEVFDGENENGHFRGKFCGKIAPPPVVSSGPFLFIKFVSDYETHGAGFSIRYELFKRGPECSQNYTTPSGVIKSPGFPEKYPNSLECTYIVFAPKMSEIILEFESFDLEPDSNPPGGMFCRYDRLEIWDGFPDVGPHIGRYCGQKTPGRIRSSSGILSMVFYTDSAIAKEGFSANYSVLQSSVSEDFKCMEALGMESGEIHSDQITASSQYSTNWSAERSRLNYPENGWTPGEKSYREWIQVDLGLLRFVTAVGTQGAISKETKKKYYVKTYKIDVSSNGEDWITIKEGNKPVLFQGNTNPTDVVVAVFPKPLITRFVRIKPATWETGISMRFEVYGCKITDYPCSGMLGMVSGLISDSQITSSNQGDRNWMPENIRLVTSRSGWALPPAPHSYINEWLQIDLGEEKIVRGIIIQGGKHRENKVFMRKFKIGYSNNGSDWKMIMDDSKRKAKSFEGNNNYDTPELRTFPALSTRFIRIYPERATHGGLGLRMELLGCRSGSKENLYFQG
Binding to SEMA3A (SEMA3A-FC): No | SEMA 3A-FC binding (dissociation constant) (SEMA3A-FC): No binding | VEGF165 binding (dissociation constant) (human VEGF165): No binding
